Data: article PMC3835729

Test system: Nc1ncnc2c1ncn2[C@@H]1O[C@H](COP(=O)(O)NCCc2c[nH]c3ccccc23)[C@@H](O)[C@H]1O
Experiment: purified protein
Settings: 20 mM HEPES, 1 mM MgCl2, pH 7.2, 25 °C

Substance | Km | kcat | kcat/Km
human histidine triad nucleotide binding protein 1 (hHint1) (Homo sapiens) | 0.13 ± 0.02 µM | 2.1 ± 0.1 s⁻¹ | 1.5e+07 ± 3e+06 M⁻¹ s⁻¹
human histidine triad nucleotide binding protein 1 (hHint1) (Homo sapiens; H51A) | 1.8 ± 0.2 µM | 0.53 ± 0.02 s⁻¹ | 300000 ± 40000 M⁻¹ s⁻¹
human histidine triad nucleotide binding protein 1 (hHint1) (Homo sapiens; H114A) | 0.27 ± 0.05 µM |  | 
